Data taken from US20230340058A1.

Biological target: human RXFP1, full-length (human), Q9HBX9
Test: cell-based or functional assay

Sequence of human RXFP1, full-length (human), Q9HBX9 (Q9HBX9 whole entry): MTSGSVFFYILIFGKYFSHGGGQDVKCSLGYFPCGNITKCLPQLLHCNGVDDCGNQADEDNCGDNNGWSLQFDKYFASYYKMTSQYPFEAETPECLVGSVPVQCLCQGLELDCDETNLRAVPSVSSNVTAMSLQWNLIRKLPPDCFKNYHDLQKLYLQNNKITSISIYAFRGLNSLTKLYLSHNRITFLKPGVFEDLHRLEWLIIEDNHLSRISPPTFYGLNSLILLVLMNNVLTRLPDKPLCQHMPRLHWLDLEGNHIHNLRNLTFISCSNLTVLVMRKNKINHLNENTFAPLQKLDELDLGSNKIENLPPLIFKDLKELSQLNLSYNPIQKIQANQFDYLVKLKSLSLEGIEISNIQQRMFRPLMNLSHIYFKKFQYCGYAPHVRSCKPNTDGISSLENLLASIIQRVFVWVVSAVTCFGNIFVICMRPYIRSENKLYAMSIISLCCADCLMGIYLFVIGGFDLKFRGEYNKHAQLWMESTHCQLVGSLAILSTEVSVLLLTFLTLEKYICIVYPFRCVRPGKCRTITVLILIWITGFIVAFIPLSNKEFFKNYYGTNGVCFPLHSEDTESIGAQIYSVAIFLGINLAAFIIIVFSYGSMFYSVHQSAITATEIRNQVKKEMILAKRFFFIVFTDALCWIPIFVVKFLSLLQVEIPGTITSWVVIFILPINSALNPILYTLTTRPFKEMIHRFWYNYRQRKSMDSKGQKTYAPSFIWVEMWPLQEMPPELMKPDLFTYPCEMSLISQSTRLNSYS

| Potency Assay EC50 (nM), transient hRXFP1 cAMP assay [nM] | Binder |
| --- | --- |
| 54.4 | SEQ ID NO: 85 (Fc fusion) DKTHTCPPCPAPEAAGGPSVFLFPPKPKDTLMISRTPEVTCVVVDVSHEDPEVKFNWYVDGVEVHNAKTKPREEQYNSTYRVVSVLTVLHQDWLNGKEYKCKVSNKALAAPIEKTISKAKGQPREPQVYTLPPSRDELTKNQVSLTCLVKGFYPSDIAVEWESNGQPENNYKTTPPVLDSDGSFFLYSKLTVDKSRWQQGNVFSCSVLHEALHSHYTQKSLSLSPGKGGSDSWQEEVIKLCGRELVRAQIAICGKSTGGEGEGGEGEGGSRQDYSALANKCCHVGCTKRSLAQFC |
| 9.3 | SEQ ID NO: 83 (Fc fusion) DKTHTCPPCPAPEAAGGPSVFLFPPKPKDTLMISRTPEVTCVVVDVSHEDPEVKFNWYVDGVEVHNAKTKPREEQYNSTYRVVSVLTVLHQDWLNGKEYKCKVSNKALAAPIEKTISKAKGQPREPQVYTLPPSRDELTKNQVSLTCLVKGFYPSDIAVEWESNGQPENNYKTTPPVLDSDGSFFLYSKLTVDKSRWQQGNVFSCSVLHEALHSHYTQKSLSLSPGGGSDSWQEEVIKLCGRELVRAQIAICGKSTGGEGEGGEGEGGSRQLYSALANKCCHVGCTKRSLARFC |
| 41.9 | SEQ ID NO: 84 (Fc fusion) DKTHTCPPCPAPEAAGGPSVFLFPPKPKDTLMISRTPEVTCVVVDVSHEDPEVKFNWYVDGVEVHNAKTKPREEQYNSTYRVVSVLTVLHQDWLNGKEYKCKVSNKALAAPIEKTISKAKGQPREPQVYTLPPSRDELTKNQVSLTCLVKGFYPSDIAVEWESNGQPENNYKTTPPVLDSDGSFFLYSKLTVDKSRWQQGNVFSCSVLHEALHSHYTQKSLSLSPGGGSDSWQEEVIKLCGRELVRAQIAICGKSTGGEGEGGEGEGGSRQLYSALANKCCHVGCTKRSLAQFC |
